Laboratory results: US20250188195A1

Target: cotinine-conjugated anti-HER2 affibody (ZQAA1-Cot)
Assay: ELISA, ZQAA1-Cot (2 ug/mL) captured on coated hHER2-ECD-His, anti-hIgG-Fc-HRP, absorbance at 450 nm

B1: humanized antibody (hz33B2) specifically binding to cotinine (antibody, V domains shown)
VH: QVQLVQSGAEVKKPGASVKVSCKASGYTFTSYWIQWVRQAPGQGLEWMGEIFPGTGTTYYNEKFKGRVTMTIDTSTSTVYMELSSLRSEDTAVYYCARGGYYYDSRAWFAYWGQGTLVTVSS
VL: QAVVTQEPSLTVSPGGTVTLTCRSSTGTVTTSNYANWVQQKPGQAPRGLIGGTNNRAPWTPARFSGSLLGDKAALTLSGAQPEDEAEYYCALWFSNHWVFGGGTKLTVLG
**Q.** How did the EC50 (read off the curve) turn out when B1 was run?
**A.** Its EC50 (read off the curve) is 0.06 µg/mL.
